Holding throughout (assay): cell-based or functional assay
The target in test [1] is adenylyl cyclase (AC) in rat spinal cord lysates/membranes (rat).
The target of test [2] is adenylyl cyclase (AC) in rat dorsal root ganglia (DRG) lysates (rat).
Test [3] has as its target adenylyl cyclase (AC) in rat spinal cord lysates/membranes (rat). The source holds these as a separate data set.

Consider one substance from patent publication US20050032695A1.

Like-named read-outs stand apart in the source and are kept apart here.

In the case of “PAM (Protein Associated with Myc), full length, purified from HeLa cells (from UniProt O75592 1-4678)”, the inhibition of Gαs-stimulated AC activity, spinal cord lysates of control animals, 30 nM PAM in test [1] was 50%. Also, in test [2], the inhibition of Gαs-stimulated AC activity, DRG lysates, 30 nM PAM worked out at 32%. In test [3], this substance came in with an inhibition of Gαs-stimulated AC activity, spinal cord lysates of animals treated for 1 hour with formalin, 30 nM PAM of 25%; an inhibition of Gαs-stimulated AC activity, spinal cord lysates of control animals, 30 nM PAM of 49%; an inhibition of Gαs-stimulated AC activity, spinal cord lysates of rats 96 hours after zymosan injection, 30 nM PAM of 70%; an inhibition of Gαs-stimulated AC activity, spinal cord preparations of zymosan-treated animals of 75%.
